# B1: FCHO1 (parent)
# chain: DKLALCHLELTRKLQDLIKDVLRY
# Variants of: B1
# Assay: protein stability index of a GFP-peptide fusion (GPS, HEK-293T) (PSI 1-6); higher = more stable
# Conditions: c terminus: a fixed tail appended
# 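Note: lentivirally expressed fusions sorted by FACS into six bins by GFP to DsRed ratio, PSI derived from sequencing read proportions per bin multiplied by bin number.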
row,Variant,protein stability index
1,DKLALCHLELTRKMQDLIKDVLRY [L14M],4.05
2,DKLALCHLELTRKNQDLIKDVLRY [L14N],2.33
3,DKLALCHLELTRKPQDLIKDVLRY [L14P],2.99
4,DKLALCHLELTRKQQDLIKDVLRY [L14Q],2.14
5,DKLALCHLELTRKRQDLIKDVLRY [L14R],2.6
6,DKLALCHLELTRKSQDLIKDVLRY [L14S],2.13
7,DKLALCHLELTRKWQDLIKDVLRY [L14W],1.53
8,DKLALCHLELTRKYQDLIKDVLRY [L14Y],1.49
9,DKLALCHLELTRKLADLIKDVLRY [Q15A],2.11
10,DKLALCHLELTRKLCDLIKDVLRY [Q15C],2.26
11,DKLALCHLELTRKLDDLIKDVLRY [Q15D],2.48
12,DKLALCHLELTRKLIDLIKDVLRY [Q15I],3.87
13,DKLALCHLELTRKLLDLIKDVLRY [Q15L],3.4
14,DKLALCHLELTRKLNDLIKDVLRY [Q15N],2.84
15,DKLALCHLELTRKLPDLIKDVLRY [Q15P],1.36
16,DKLALCHLELTRKLRDLIKDVLRY [Q15R],2.88
17,DKLALCHLELTRKLSDLIKDVLRY [Q15S],4.09
18,DKLALCHLELTRKLTDLIKDVLRY [Q15T],2.05
19,DKLALCHLELTRKLVDLIKDVLRY [Q15V],1.95
20,DKLALCHLELTRKLWDLIKDVLRY [Q15W],2.34
21,DKLALCHLELTRKLYDLIKDVLRY [Q15Y],2.79
22,DKLALCHLELTRKLQCLIKDVLRY [D16C],3.11
23,DKLALCHLELTRKLQFLIKDVLRY [D16F],2.36
24,DKLALCHLELTRKLQILIKDVLRY [D16I],2.67

row,Variant,protein stability index
1,DKLALCHLELTRKLQMLIKDVLRY [D16M],2.46
2,DKLALCHLELTRKLQNLIKDVLRY [D16N],3.32
3,DKLALCHLELTRKLQPLIKDVLRY [D16P],2.15
4,DKLALCHLELTRKLQSLIKDVLRY [D16S],2.2
5,DKLALCHLELTRKLQVLIKDVLRY [D16V],2.92
6,DKLALCHLELTRKLQWLIKDVLRY [D16W],2.1
7,DKLALCHLELTRKLQYLIKDVLRY [D16Y],2.42
8,DKLALCHLELTRKLQDAIKDVLRY [L17A],1.42
9,DKLALCHLELTRKLQDDIKDVLRY [L17D],2.06
10,DKLALCHLELTRKLQDEIKDVLRY [L17E],2.04
11,DKLALCHLELTRKLQDFIKDVLRY [L17F],2.42
12,DKLALCHLELTRKLQDGIKDVLRY [L17G],3.64
13,DKLALCHLELTRKLQDHIKDVLRY [L17H],2.06
14,DKLALCHLELTRKLQDIIKDVLRY [L17I],2.89
15,DKLALCHLELTRKLQDKIKDVLRY [L17K],2.77
16,DKLALCHLELTRKLQDNIKDVLRY [L17N],2.13
17,DKLALCHLELTRKLQDPIKDVLRY [L17P],3.05
18,DKLALCHLELTRKLQDQIKDVLRY [L17Q],1.35
19,DKLALCHLELTRKLQDRIKDVLRY [L17R],2.12
20,DKLALCHLELTRKLQDSIKDVLRY [L17S],2.04
21,DKLALCHLELTRKLQDTIKDVLRY [L17T],2.71
22,DKLALCHLELTRKLQDVIKDVLRY [L17V],2.4
23,DKLALCHLELTRKLQDWIKDVLRY [L17W],4.39
24,DKLALCHLELTRKLQDYIKDVLRY [L17Y],3.59

row,Variant,protein stability index
1,DKLALCHLELTRKLQDLAKDVLRY [I18A],2.71
2,DKLALCHLELTRKLQDLCKDVLRY [I18C],2.17
3,DKLALCHLELTRKLQDLDKDVLRY [I18D],2.98
4,DKLALCHLELTRKLQDLEKDVLRY [I18E],3.6
5,DKLALCHLELTRKLQDLFKDVLRY [I18F],3.1
6,DKLALCHLELTRKLQDLGKDVLRY [I18G],2.33
7,DKLALCHLELTRKLQDLHKDVLRY [I18H],2.12
8,DKLALCHLELTRKLQDLKKDVLRY [I18K],3.16
9,DKLALCHLELTRKLQDLMKDVLRY [I18M],2.05
10,DKLALCHLELTRKLQDLNKDVLRY [I18N],2.4
11,DKLALCHLELTRKLQDLPKDVLRY [I18P],2.11
12,DKLALCHLELTRKLQDLQKDVLRY [I18Q],1.73
13,DKLALCHLELTRKLQDLRKDVLRY [I18R],2.76
14,DKLALCHLELTRKLQDLSKDVLRY [I18S],2.6
15,DKLALCHLELTRKLQDLTKDVLRY [I18T],2.02
16,DKLALCHLELTRKLQDLYKDVLRY [I18Y],2.52
17,DKLALCHLELTRKLQDLIADVLRY [K19A],1.17
18,DKLALCHLELTRKLQDLICDVLRY [K19C],2.7
19,DKLALCHLELTRKLQDLIDDVLRY [K19D],1.78
20,DKLALCHLELTRKLQDLIEDVLRY [K19E],2.16
21,DKLALCHLELTRKLQDLIFDVLRY [K19F],1.66
22,DKLALCHLELTRKLQDLIGDVLRY [K19G],2.29
23,DKLALCHLELTRKLQDLIHDVLRY [K19H],2.18
24,DKLALCHLELTRKLQDLIIDVLRY [K19I],2.33

row,Variant,protein stability index
1,DKLALCHLELTRKLQDLIMDVLRY [K19M],2.52
2,DKLALCHLELTRKLQDLINDVLRY [K19N],2.69
3,DKLALCHLELTRKLQDLIPDVLRY [K19P],2.36
4,DKLALCHLELTRKLQDLIQDVLRY [K19Q],1.36
5,DKLALCHLELTRKLQDLIRDVLRY [K19R],2.22
6,DKLALCHLELTRKLQDLISDVLRY [K19S],1.71
7,DKLALCHLELTRKLQDLIYDVLRY [K19Y],2.43
8,DKLALCHLELTRKLQDLIKCVLRY [D20C],1.11
9,DKLALCHLELTRKLQDLIKFVLRY [D20F],1.87
10,DKLALCHLELTRKLQDLIKGVLRY [D20G],3.57
11,DKLALCHLELTRKLQDLIKIVLRY [D20I],2.16
12,DKLALCHLELTRKLQDLIKKVLRY [D20K],1.71
13,DKLALCHLELTRKLQDLIKLVLRY [D20L],2.19
14,DKLALCHLELTRKLQDLIKMVLRY [D20M],1.9
15,DKLALCHLELTRKLQDLIKNVLRY [D20N],4.79
16,DKLALCHLELTRKLQDLIKPVLRY [D20P],2.52
17,DKLALCHLELTRKLQDLIKVVLRY [D20V],2.67
18,DKLALCHLELTRKLQDLIKWVLRY [D20W],2.4
19,DKLALCHLELTRKLQDLIKYVLRY [D20Y],2.3
20,DKLALCHLELTRKLQDLIKDDLRY [V21D],1.43
21,DKLALCHLELTRKLQDLIKDELRY [V21E],2.24
22,DKLALCHLELTRKLQDLIKDFLRY [V21F],2.25
